The source of these data is publication PMC11025565 (Journal of molecular biology, 2021).

Assay [1] concerns the target T1, integrin β3(P685-F727) transmembrane peptide with C687S (human, UniProt P05106 711-753, C687S).
T1 chain (looked up): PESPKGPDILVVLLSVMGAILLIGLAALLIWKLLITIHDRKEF
In words: ITC. A general note: ITC needs no label: the signal is the heat of the interaction.

The target of assay [2] is T2, integrin β3(P685-F727) transmembrane peptide with C687S and I693A (human, UniProt P05106 711-753, C687S | I693A).
T2 chain (looked up): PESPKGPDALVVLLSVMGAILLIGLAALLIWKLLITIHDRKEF
In words: ITC.

Consider ALEERAIPIWVVLVGVLGGLLLLTILVLAMWKVGFFKRNRP (peptide, UniProt P08514 989-1029, looked up) [integrin αIIb(A958-P998) transmembrane peptide with W968V], for which the figures for the KXY in assay [1] and in assay [2] were 13200 ± 600 and 18600 ± 800, respectively. The dH in assay [1] is -14.3 ± 0.2 kcal/mol; in assay [2], -16 ± 0.2 kcal/mol.

B1: integrin αIIb(A958-P998) transmembrane peptide with G972S (peptide)
chain: not shown
Regarding B1, in assay [1], the KXY amounted to 810 ± 20 and the dH is -14.8 ± 0.2 kcal/mol.

B2: integrin αIIb(A958-P998) transmembrane peptide with G972A (peptide)
chain: not shown
In assay [1], B2 returned a KXY of 1080 ± 30 and a dH of -14.2 ± 0.2 kcal/mol.
In assay [1], ALEERAIPIWVVLVAVLGGLLLLTILVLAMWKVGFFKRNRP (peptide, UniProt P08514 989-1029, looked up) [integrin αIIb(A958-P998) transmembrane peptide with W968V/G972A] had a KXY of 1570 ± 50 and a dH of -14.4 ± 0.2 kcal/mol.
In the same order, the values of ALEERAIAIWVVLVGVLGGLLLLTILVLAMWKVGFFKRNRP (peptide, UniProt P08514 989-1029, looked up) [integrin αIIb(A958-P998) transmembrane peptide with P965A/W968V] are 9700 ± 300 and -14.6 ± 0.1 kcal/mol.
Consider ALEERAIPIWVVLVSVLGGLLLLTILVLAMWKVGFFKRNRP (peptide, UniProt P08514 989-1029, looked up) [integrin αIIb(A958-P998) transmembrane peptide with W968V/G972S], for which, in assay [1], the KXY was found to be 1300 ± 50 and the dH was -12.5 ± 0.3 kcal/mol.
With ALEERAIPIWAVLVGVLGGLLLLTILVLAMWKVGFFKRNRP (peptide, UniProt P08514 989-1029, looked up) [integrin αIIb(A958-P998) transmembrane peptide with W968A], in assay [1], the KXY was 14000 ± 1000 and the dH is -14.1 ± 0.3 kcal/mol.

B3: integrin αIIb(A958-P998) transmembrane peptide (peptide)
chain: not shown
B3: in assay [2], the KXY worked out at 9500 ± 500 and the dH is -13.9 ± 0.3 kcal/mol.
